Results published in patent US20190062752, “Transcription Factor Trapping by RNA in Gene Regulatory Elements” (Whitehead Institute for Biomedical Research, published 2019).

Experiments:
[1] = biological target: T1, YY1 C-terminal region (zinc fingers) (Mus musculus, UniProt Q00899 Q00899:271-414); assay: EMSA; zinc-finger region binds DNA; details: label: 32P
Method: (§1) Sizes of N-terminal and C-terminal regions of YY1 are drawn to scale. […] 5 nM of radioactively labeled 30-bp DNA probe derived from the promoter region of Arid1a gene containing a consensus YY1 binding motif was incubated with increasing concentrations of full-length recombinant murine YY1 protein (FL), the N-terminal portion of YY1 (N-term) lacking the zinc-fingers or the C-terminal portion (C-term) containing the zinc fingers. […] The arrows indicate free probe and probe bound by YY1. […] 5 nM of radioactively labeled 30-nt RNA probe derived from the promoter region of Arid1a gene was incubated with increasing concentrations of full-length recombinant murine YY1 protein (FL), the N-terminal portion of YY1 (N-term) lacking the zinc-fingers or the C-terminal portion (C-term) containing the zinc fingers. […] The arrows indicate free probe and probe bound by YY1;
(§2) EMSAs with the recombinant murine YY1 were performed in a similar way as those with the NE. DNA-binding reactions (20 μl) contained 10 mM HEPES-KOH pH 7.5, 12 mM Tris-HCl pH 7.4, 50 mM NaCl, 50 mM KCl, 5 mM MgCl₂, 0.1 mM ZnCl₂, 0.01% NP-40, 5% glycerol, 500 ng poly(dI-dC), 0.5 mM DTT, and recombinant murine YY1. […]

[2] = biological target: T2, YY1 (full length) (Mus musculus, UniProt Q00899 Q00899:1-414); assay: EMSA; higher affinity than for RNA; 0.1 mM ZnCl2, 5 mM MgCl2; binding curve only in FIG. 7B; details: tags: N-terminal His6; label: 32P
Method: (§3) 5 nM of radioactively labeled 30-bp DNA probe derived from the promoter region of Arid1a gene containing a consensus YY1 binding motif ([…]; SEQ ID NO: 4) was incubated with increasing concentrations of recombinant murine YY1 protein. Right panel: EMSA of YY1-RNA complexes at different concentrations of recombinant YY1. 5 nM of radioactively labeled 30-nt RNA probe derived from the same region of the Arid1a gene was incubated with increasing concentrations of recombinant YY1 protein.
(§4) EMSAs with the recombinant murine YY1 were performed in a similar way as those with the NE. DNA-binding reactions (20 μl) contained 10 mM HEPES-KOH pH 7.5, 12 mM Tris-HCl pH 7.4, 50 mM NaCl, 50 mM KCl, 5 mM MgCl₂, 0.1 mM ZnCl₂, 0.01% NP-40, 5% glycerol, 500 ng poly(dI-dC), 0.5 mM DTT, and recombinant murine YY1. RNA-binding reactions (20 μl) contained 10 mM HEPES-KOH pH 7.5, 12 mM Tris-HCl pH 7.4, 50 mM NaCl, 50 mM KCl, 5 mM MgCl₂, 0.1 mM ZnCl₂, 0.01% NP-40, 5% glycerol, 10 U SUPERase In RNase inhibitor (Life Technologies), 0.5 mM DTT, and recombinant murine YY1.

[3] = biological target: T3, OCT4 (Homo sapiens, UniProt Q01860 Q01860:1-360); assay: EMSA; legend: OCT4 does not bind RNA in vitro; details: tags: Abcam ab134876; label: 32P
Method: (§5) The x-axis indicates distance from the TSS in kilobases. The y-axis indicates average density of uniquely mapped reads per genomic bin. […] A radioactively labeled 40-bp DNA probe containing OCT4 consensus binding motif derived from the enhancer of Lefty1 gene was incubated with 250 nM of the recombinant human OCT4 (Abcam, # ab134876). In competition EMSA, 100-fold molar excess of cold competitor DNA containing the OCT4 motif (Lefty1 DNA comp), cold DNA competitor, in which bases adjacent the OCT4 motif were randomly substituted (mut Lefty1 DNA comp), cold DNA competitor lacking the OCT4 motif (Arid1a DNA comp), or cold RNA competitor (Arid1a RNA comp) was pre-incubated with the recombinant OCT4 before the radioactively labeled DNA probe was added to the binding reaction. The arrows indicate free probe and probe bound by OCT4.

[4] = biological target: T1, YY1 C-terminal region (zinc fingers); assay: EMSA; zinc-finger region does not bind RNA; details: label: 32P
Method: as §1, §2

[5] = biological target: YY1 N-terminal region (Mus musculus, UniProt Q00899 Q00899:1-277); assay: EMSA; N-terminal region binds RNA; details: label: 32P
Method: as §1, §2

[6] = biological target: T2, YY1 (full length); assay: EMSA; weaker than DNA; 0.1 mM ZnCl2, 5 mM MgCl2; details: tags: N-terminal His6; label: 32P
Method: as §3, §4

[7] = biological target: T3, OCT4; assay: EMSA; 250 nM OCT4; details: tags: Abcam ab134876; label: 32P
Method: as §5

[8] = biological target: T2, YY1 (full length); assay: EMSA; 240 nM YY1 in FIG. 9C; details: tags: N-terminal His6; label: 32P
Method: A radioactively labeled 30-bp DNA probe containing YY1 consensus binding motif derived from the promoter region of Arid1a gene was incubated with 80 nM of the recombinant murine YY1. For supershift assay, 0.5 μl of YY1 antibodies (# sc-7341) was added to the DNA probe pre-incubated with the recombinant protein. In competition EMSA, 100-fold molar excess of cold competitor DNA containing YY1 motif (Spec comp) or lacking YY1 motif (Nspec comp) was pre-incubated with the recombinant YY1 before the radioactively labeled DNA probe was added to the binding reaction. The arrows indicate free probe, probe bound by YY1, probe bound by YY1 fragment, and supershifted probe. […] Radioactively labeled 30-bp DNA probe containing YY1 consensus binding motif derived from the promoter region of Rpl30 gene was incubated with 240 nM of the recombinant murine YY1. In competition EMSA, 100-fold molar excess of cold competitor RNA derived from the promoter region of Arid1a gene was pre-incubated with the recombinant murine YY1 before the radioactively labeled DNA probe was added to the binding reaction. The arrows indicate free probe and probe bound by YY1;
EMSAs with the recombinant murine YY1 were performed in a similar way as those with the NE. […]

[9] = biological target: T2, YY1 (full length); assay: EMSA; tethered RNA outcompetes DNA with untethered RNA; IC50 values only in figure; details: tags: N-terminal His6; label: 32P (probe 2); 30-bp DNA duplex with 30-nt RNA overhang at each 3' end
[10] = biological target: T2, YY1 (full length); assay: competition; described as RNA incompatible with YY1 binding in vitro; details: tags: N-terminal His6
Method: A radioactively labeled 30-nt RNA probe containing sequence derived from the promoter region of Arid1a gene shown in blue above the image or the complementary sequence shown in pink was incubated with 400 nM of the recombinant murine YY1. The arrows indicate free probe and probe bound by YY1. […] Radioactively labeled 30-nt RNA probe derived from the promoter region of Arid1a gene was incubated with 400 nM of recombinant murine YY1. Sequence of the probe is shown above the image in blue. In competition EMSA, 100-fold molar excess of cold competitor RNA with the same sequence as the radiolabeled RNA (Arid1a RNA A), complementary sequence (Arid1a RNA 1), or a different sequence (Arid1a RNA B) was pre-incubated with the recombinant YY1 before the probe was added to the binding reaction. The arrows indicate free probe and probe bound by YY1. Asterisk indicates the position of double-stranded RNA formed when single-stranded cold RNA was incubated with the complementary labelled RNA probe. […] Radioactively labeled 30-nt RNA probe derived from the promoter region of Arid1a gene was incubated with 400 nM of recombinant murine YY1. Sequence of the probe and competitor RNA are shown above the image. For supershift assay, 0.5 μl of YY1 antibodies (# sc-7341) was added to the RNA probe. […]

T2 sequence (Q00899 whole entry, one chain of several): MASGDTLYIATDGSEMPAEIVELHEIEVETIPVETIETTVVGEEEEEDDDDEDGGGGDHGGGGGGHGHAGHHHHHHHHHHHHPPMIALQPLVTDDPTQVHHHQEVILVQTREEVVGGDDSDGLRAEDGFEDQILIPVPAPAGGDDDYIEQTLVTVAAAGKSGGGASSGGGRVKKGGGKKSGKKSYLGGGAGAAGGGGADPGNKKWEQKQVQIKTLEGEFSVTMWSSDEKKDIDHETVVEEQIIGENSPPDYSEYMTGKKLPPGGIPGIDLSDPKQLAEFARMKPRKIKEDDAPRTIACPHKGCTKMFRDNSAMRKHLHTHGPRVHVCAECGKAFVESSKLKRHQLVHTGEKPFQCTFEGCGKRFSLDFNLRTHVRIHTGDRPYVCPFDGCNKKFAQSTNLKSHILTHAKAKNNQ
T3 sequence (Q01860 whole entry, one chain of several): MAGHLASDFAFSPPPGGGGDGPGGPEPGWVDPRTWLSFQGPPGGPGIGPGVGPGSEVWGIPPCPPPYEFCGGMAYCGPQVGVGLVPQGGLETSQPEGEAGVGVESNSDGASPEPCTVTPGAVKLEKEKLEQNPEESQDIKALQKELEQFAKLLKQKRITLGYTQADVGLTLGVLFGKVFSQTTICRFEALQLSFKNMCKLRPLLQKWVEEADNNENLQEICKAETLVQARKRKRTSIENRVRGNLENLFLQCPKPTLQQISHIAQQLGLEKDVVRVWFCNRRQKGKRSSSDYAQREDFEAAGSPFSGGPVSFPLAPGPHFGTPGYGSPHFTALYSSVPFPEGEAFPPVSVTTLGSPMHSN
T1 sequence (Q00899 271-414, one chain of several): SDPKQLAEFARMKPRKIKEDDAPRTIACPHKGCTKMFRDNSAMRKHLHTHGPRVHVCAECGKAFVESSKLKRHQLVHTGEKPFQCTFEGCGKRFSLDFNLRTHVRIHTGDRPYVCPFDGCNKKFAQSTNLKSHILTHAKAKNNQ
YY1 N-terminal region, sequence (Q00899 1-277, one chain of several): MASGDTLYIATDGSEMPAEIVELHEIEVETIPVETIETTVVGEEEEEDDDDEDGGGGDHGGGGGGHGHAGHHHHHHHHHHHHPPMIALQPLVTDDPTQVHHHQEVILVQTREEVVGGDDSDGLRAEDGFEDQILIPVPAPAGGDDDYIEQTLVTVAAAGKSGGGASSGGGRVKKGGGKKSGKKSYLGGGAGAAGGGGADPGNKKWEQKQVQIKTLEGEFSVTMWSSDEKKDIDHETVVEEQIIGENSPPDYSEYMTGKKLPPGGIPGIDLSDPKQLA

B1: Arid1a promoter DNA with YY1 motif (dsDNA)
DNA 1: CTCTTCTCTCTTAAAATGGCTGCCTGTCTG
DNA 2: CAGACAGGCAGCCATTTTAAGAGAGAAGAG
[1]
  binding result: binds
[2]
  binding result: binds

B2: Arid1a promoter RNA A (ssRNA)
RNA: CUCUUCUCUCUUAAAAUGGCUGCCUGUCUG
[3]
  binding result: no binding
[4]
  binding result: no binding
[5]
  binding result: binds
[6]
  binding result: binds

B3: Lefty1 enhancer DNA (dsDNA)
DNA 1: GGTGGGAGGGAGACTGCCCTTTGTCATGTAGAAGGAGCTT
DNA 2: AAGCTCCTTCTACATGACAAAGGGCAGTCTCCCTCCCACC
[7]
  binding result: binds

B4: Rpl30 promoter DNA with YY1 motif (dsDNA)
DNA 1: TCGCTCCCCGGCCATCTTGGCGGCTGGTGT
DNA 2: ACACCAGCCGCCAAGATGGCCGGGGAGCGA
[8]
  binding result: binds

B5: Rpl30 DNA with tethered Arid1a RNA (mixed)
mixed 1: TCGCTCCCCGGCCATCTTGGCGGCTGGTGTCUCUUCUCUCUUAAAAUGGCUGCCUGUCUG
mixed 2: ACACCAGCCGCCAAGATGGCCGGGGAGCGACUCUUCUCUCUUAAAAUGGCUGCCUGUCUG
[9]
  binding result: binds

B6: Arid1a promoter RNA B (ssRNA)
RNA: CCCGCCUCCCCAGGCCUACGCGCUGAGCUC
[10]
  binding result: no binding
